According to the nanobody polyreactivity screen of Harvey et al. (2022):

Assay: yeast display, Sf9 membrane polyspecificity reagent, FACS + sequencing; frameworks hold sequencing errors
Outline: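 Polyreactivity labels are assigned by the sorting gate from which each nanobody was recovered. The gates were low and high (top ~1%), set on anti-HA fluorescence for expression and streptavidin fluorescence for reagent binding. Before sorting, galactose-induced (36–48 hours) yeast display cells were stained for 1 hour at 4 °C with 10% biotinylated, detergent-solubilized Sf9 membrane reagent.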

| Sequence | polyreactivity (PSR sort gate) |
| --- | --- |
| QVQLVESGGGLVQAGGSLRLSCAASGSIAYNAMGCYRQAPGKERELVASIRASGGRTYYADSVKGRFTISRDNAKNTVYLQMNSLKPEDTAVYYCAAYAYNAIEYGYWGQGTQVTVSS | low polyreactivity |
| QVQLVESGGGLVQAGGSLRLSCAASGSTFWSNTMGWYRQAPGKERELVATITDSGGITYYADSVKGRFTISRDNAKNTVYLQMNSLKPEDTAVYYCNVRKTWYGYSVTGRYDYWGQGTQVTVSS | low polyreactivity |
| QLQLVESGGGLVQAGGSLRLSCAASGSTFRFNTMGWYRQAPGKERGLVACIAAGTTTNYADSVKGRFTISRDNAKNTVYLQMNSLKPEDAAVYYCAALNAFNTGHWYWGQGTQVTVSS | low polyreactivity |
| QVQLVESGGGLVQAGGSLRLSCAASGRIFNLNAMVRYRQAPGKERELVAAISKSGTRTYYADSVKGRFTISRDNAKNTVYLQMYSLKPEDTAVYYCGAEALYYDRLGWVYLRYDYWGQGTQVTVSS | high polyreactivity |
| QVQLVESGGGIVQAGGSLRLSCAASGRIFATYAMGWYRQAPGKERELVAAIRSDGNTKYADSVKGRFTISRDNAKNTVYLQMNSLKPEDTAVYYCAAYARYAGVLYDYWGQGTQVTVSS | high polyreactivity |
| QVQLVESGGGLVQAGGSLRLSCAASGSIFTENEMGWYRQAPGKERELVATITITGSTNYADSVKGRFTISRDNAKNTVYLQMNSLKPEDTAVYYCAAEQPYKSPWTFGGYDYWGQGTQVTVSS | low polyreactivity |
| QVQLVESGGGLDQAGGSRRLSCAASGITFGRNTMGWYRQSPGKERELVASISYSGTTTYYADSVKGRFTISPDNAKNTVYLQMNSLKPEDTAVYYCNKRWRYYDMDYWGQGTQVTVSS | low polyreactivity |
| QVQLQESGGGLVQAGGSLRLSCAASGSIFYKDDMGWYRQAPGKEREFVAGIDRGGTTNCAGSVKGRFTISRDNAKNTVYLQMISLKPEDTAVYYCAAYYPDIYPFIYRGQGTQVTVSS | high polyreactivity |
| QVQLVESGGGLVQAGGSLRLSCAASGLTFDYYAMGWYRQAPGKERELVAAISISGDRTYYADSVKGRFTISRDNAKNTVYLQMNSLKPEDTAVYYCNARYPGSFRDDYWGQGTQVTVSS | high polyreactivity |
| QVQLVESGGGLVQAGCSHSLSCAASGLTFDVYTMGWYRQAPGKERELVATISQTYYADSVKGRFTISRDNAKNTVYLQMNSLKPEDTAVYYCAANGFKAQYRDIVYDYGYWGEGTQVTVSS | low polyreactivity |
| QVQLVESGGVLVQAGGILRLSCAASGRIFYGNTMGWYRQAHGKERELVAAISRSGGSTYYADSVKGRFTSSRDNAKNTVYLQMNSLKPEDTAVYYCAAKRSWGYDYWGLGTQVTVSS | high polyreactivity |
| QVQLVESVGGLDQAGGSLPLSCAASGSTLAVYDMGWSRQAPGKESELVAAISTTGGRTYYADSVKGRFTISRDNSKNTVYLQMNRLKPEDTAVYYCNADAEDVIYYEYDYCGQGTQVTVSS | low polyreactivity |
| QVQLVESGGGLVQAGGSLRLSCAASGSTFYRYAIRWYRQAPGKERELVAAISKRGGSTYYADSVKGRFTISRDNAKNTVYLQMNSLKPEDTAVYYCAADPFHYGGGDDYWGQGTQVTVSS | high polyreactivity |
| QVQLVESGGGLVQAGGSLRLSCAASGSIFVQYAMGWYRQAPGKERELVAGITISGGRTYYADSVKGRFTISRDNAKNTVYLQMNSLKPEDTAVYYSNADVTRASSRYNSWGQGTQVTVSS | low polyreactivity |
| QVQLVESGGGLVQSGGSLRLSCAASGSIFDGYAMGWYRQAPGKERELVAAISKGGTRTYYADSVKGRFTISRDNAKNTVYLQMNSLKPEDTAVYYGNAYFRREPDDGDYDYWGQGTQVTVSS | high polyreactivity |
| QVQLEESGGGLVHAGGSLRLSCAASGFTCDNYAMGWYRQAPGKERELVAAISNSGGRTYYADSVKGRFTISRDNAKNTVYLQMNSLKPEDTAVYYCTIFKDFDYWGQGTQVTVSS | high polyreactivity |
| QVQLVESGGGLVQAGGSLRLSCAASGITFDGYAMGWYRQAPGKERELVAAIRSSGGSTYYADSVKGRFTISRDNAKNTVYLQMNSLKPEDTAVYYCATDKVTVWGWKYDSWGQGTQVTVSS | low polyreactivity |
| QVQLVESGGGLVQAGGSLRLSCAASGITFLYYAMGWYRQAPGKERELVAGISGTGGRTYYADSVKGRFTISRDNAKNTVYLQMNSLKPEDTAVYYCAARRTTWGYGYWGQGTQVTVSS | high polyreactivity |
| QVQLVASGGGIDQAGGSHRLSCAASGSIFPAYTMGWYRPAPGKERELVAAITRRGGSTYYADSVKGRFTISRDNAKNTVYLQMNSLKPEDSAVYYCAADGFNSDDTPSWYWGEYWGPGTQVTVSS | low polyreactivity |
| QVQLEESGGGLFQAGGSLRLRCAASGSIFHINAMGWYRQAPGKERELVADISHRGGSTYYADSVKGRFTISRDNAKNTVYLQMNSLKPEDTAVYYCAVVHVFYAVYYFSFYTYDYWGQGTQVTVSS | low polyreactivity |
| QVQLVESGGGLVQAGGSLRLSCAASGRTLGGYTMGWYRQAPGKERELVAAITTGGSTNYADSVKGRFTISRDNAKNTVYLQMKSLIPEDTAVYYCATDLVFDKRYWYDFWGEGTQVTVSS | low polyreactivity |
| QGQLVESGGGLVQAGGSLRLSCAASGRIFSYNTMGWSRQAPGKERELVAAISTSGGSPYYADSVKGRFTISRDNAKNTVYLQMNSLTPEDTAVYYCNTVWTFRTSSNYDFWGQGTQVTVSS | low polyreactivity |

| Sequence | polyreactivity (PSR sort gate) |
| --- | --- |
| QVQLVESGGGLVQAGGSLRLSCAASGSIFYGNAMGWYRQAPGKERELVAAISARGGSTNYADSVKGRFTISRDNAKNTVYLQMNSLKPEDTSVYYCAADTPVWSGYWYYYWGQGTQVTVSS | low polyreactivity |
| QVQLVESGGGLVQAGGSLRLSCAASGRTLAYYVMGWYRQAPGKERELVAAISGRGGRTNYADSVKGRFTISRDNAKNTVYLQMNSLKPEDTAVYYCAAYRTGYNVDYYYWGQGTQVTVSS | high polyreactivity |
| QVQLVESGGGLVQAGGSLRLSCAASGSTLGYYDMGWYRQAPGKERELVAAITKSGGSTYYADSVKGRFTISRDNEKNNVYLQMNSLKPEDTAVYYCAAVYVSPKPGTRYYYWGQGTQVTVSS | high polyreactivity |
| QVQLVESGGCLVQAGGSLRLSCAASGRTFNRYAMGWYRQAPGKERELVAAITRRGGSTYYADSVKGRFTISRDNAKNTVYLQMNSLKPEDTAVYYCATDTYYSDYGSWGQGTQVTVSS | high polyreactivity |
| QVQLVESGGGLVQAGGRLRLSCAASGRTFYYNAMGWYREAPGKERELVATIGGSTYYADSVKGRFTISRDNAKNTVYLQMNSLIPEDTAVYYCAASRYSHYPRYRLTCFYYWGQGTQVTVSS | high polyreactivity |
| QVQLVESGGGLVQAGGSLRLSCAASGRTFLPNPMGWYRPAPGKERELVAVITSVGSTNYADSVKGRCTISRDNAKNTVYLQMNSLKPEDTAVYFCAALKPRTRRAGFNYWGQGTQVTVSS | low polyreactivity |
| QVQLVESGGGLVQAGGSLRLSCAASGRIFRANAMGWYRQAPGKERELVAGITRRGGSTNYADSVKGRFTISRDNAKTTVYLQMNSLKPEDTAVYYCNRDVSLSTSIRMDYWGQGTQVTVSS | low polyreactivity |
| QVQLVESGGGLVQAGGSLRLSCAASGYIFTTYAMGWYRQAPGKERELVAAISSSGGRTSYADSVKGRFTISRDNAKNTVYLQMNSLKPEDTAVYYCNARVAPKSRRITYGYWGQGTQVTVSS | high polyreactivity |
| HVQLQESGGGLVQAGGSLRLSCAASGNISYSRNMGWYRQAPGKERELVAAIDRGAITYYADSVKGRFTISRDNAKNTVYLQIYSLKPEDTAVYYCAAEYHDRGDHRYWGQGTQVTVSS | high polyreactivity |
| QVQLVESGGGLVQAGGSLRLSCAASGITFDHYAMGWYRQAPGKEREFVAAIDDIGGDTYYADSVKGRFTISRDNAKNTVYLQMNSLKPEETAVYYCATDYPWIFGHFLMDYWGQGTQVTVSS | low polyreactivity |
| QVQLVESGGGLVQAGGSLRLSCAASGSTFYGNPLGWYRKAPGKERELVAAIRRSGGRTYYADSVKGRFTISRDNAKNTVYLQMNSLKPEDTAVYYCAAAKYSGAYRSTMNYWGQGTQVTVSS | high polyreactivity |
| QVQLVESGGGLVQAGGSLRLSCAASGFIFGQYAMGWYRQAPGKERELVAAISWSGGRTNYADSVKGRFTISRDNAKNTVYLQMNSLKPEDTAVYYCAARKGKYPQYTYGYWGQGTQVTVSS | high polyreactivity |
| QVQLVESGGGLVQAGGSLRLSCAASGRIFPAYVRVWYRQAPGKERELVAAISDRGGSTYYADSVKGRFTISRDTAKHTVSLQMHRLKPEDTAVYYCAKGGEVSQGYTDDYDYWGQGTQVSVSS | low polyreactivity |
| QVQLVESGGGLVQAGGSLRLSCAASGYIFTEYDMGWSRQAPGKERELVAANSESGGSTYYADSVKGRFTISRDNAKNTVYLQMNSLKPEDTAVYYCAADQYYYWYTHQSIGYDYWGQGTQVTVSS | low polyreactivity |
| QVQLVESGGGLVQAGGSLRLSCDASGRIFHIYAMGWYREAPGKERELVASISWSGDSTYYADSVKGRFTISRDNAKNTVYLQINSLKPEDTAVYYFAAEGEETEGYDYDYWGQGTQVTVSS | low polyreactivity |
| QVQLVESGGGLVQAGGSLRLSCAASGIIFYSNTMGWYRQAPGKERELVAGISRSGSSTYYADSVKGRFTISRDIAKNTVYLQMNSLKPEDTAVYYCADYRYGVTNAYGYWGQGTQVTVSS | high polyreactivity |
| QVQLEESGGGLVQAGGSLRLSCAASGFTFFSYYAMGWYIQAPGKERELVATITSGASTNYADSVKGRFTISRDNAKNTVYLQMNSLKPEDTAVYYCAAAYFYWRVDKYYYWGQGTQVTVSS | low polyreactivity |
| QVQLVESGGGLVQAGGSLRLSCAASAFTLYPYAKGWYRQAPGKERELVAAISGSGGSTYYADSVKGRFTISRDNAKNTVYLQMNRLKPEDTAVYYCAARYLDVRPFYYWGQGTQVTVSS | high polyreactivity |
| HVQLVESGGGLVQAGGSLRLSCAASGRTFNVNAMGWYRQAPGKERELVAAIDFSDGRTYYADSVKGRFTISRDNAKNTVYLQMNSLKPEDTAVYYCARSFRVGNTWYDYWGQGTQVTVSS | high polyreactivity |
| QVQLVESGGGLVQAGGSLRLSCAASGFTFAYYAMGWYRQAPGKEWELVAAISRGGTSTYYADSVKGRFTISRDKAKNTVYLQMNTLKPEDTAVNYCNAGKVGYSLYDYCGQGTQVTVSS | high polyreactivity |
| QVQLVESGGGLVQAGGSLRLSCAASGIIFWRYAMGWYRQAPGKERELVAAISSSGSTYYADSVKGRFTISRDNAKNTVYLQMNSLKPEDTAVYYCAAYSYPAGEYDYWGQGTQVTVSS | low polyreactivity |
